Experimental data published in paper PMC9482650, “Quantitative fragmentomics allow affinity mapping of interactomes” (Nature Communications, 2022).

Columns and labels:
Assay in all cases: holdup assay
Set-up in all cases: key: below the threshold = too weak to quantify, mostly under pKd 3.1 to 4
Conditions in all cases: plain residues with an end cap or a label only (N-terminal biotin on a linker: ttds)
FRMPD2_2, Q68DX3 = target: FRMPD2_2, Q68DX3
LNX1_1, Q8TBB1 = target: LNX1_1, Q8TBB1
DLG1_1, Q12959 = target: DLG1_1, Q12959
DLG4_3, P78352 = target: DLG4_3, P78352
DLG4_3, P78352, sequence (P78352 306-403): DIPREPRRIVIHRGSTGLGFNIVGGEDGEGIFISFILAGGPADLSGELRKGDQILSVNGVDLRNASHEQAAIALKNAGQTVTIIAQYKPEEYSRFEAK

GRIP1_4, Q9Y3R0 = target: T1, GRIP1_4, Q9Y3R0
T1 sequence (Q9Y3R0 467-571, limits assumed, looked up): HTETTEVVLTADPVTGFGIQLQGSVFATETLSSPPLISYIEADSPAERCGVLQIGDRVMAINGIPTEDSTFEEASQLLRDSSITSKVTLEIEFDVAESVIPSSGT

GRIP2_6, Q9C0E4 = target: GRIP2_6, Q9C0E4
GRIP2_6, Q9C0E4, sequence (Q9C0E4 648-740): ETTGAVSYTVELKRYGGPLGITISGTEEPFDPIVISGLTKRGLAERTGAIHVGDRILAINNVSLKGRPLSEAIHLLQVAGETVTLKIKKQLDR

GRIP2_7, Q9C0E4 = target: GRIP2_7, Q9C0E4
GRIP2_7, Q9C0E4, sequence (Q9C0E4 934-1023): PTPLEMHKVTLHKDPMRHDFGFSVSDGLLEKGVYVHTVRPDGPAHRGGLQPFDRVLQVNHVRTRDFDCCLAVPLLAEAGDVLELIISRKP

FRMPD2_3, Q68DX3 = target: FRMPD2_3, Q68DX3
FRMPD2_3, Q68DX3, sequence (Q68DX3 1073-1166): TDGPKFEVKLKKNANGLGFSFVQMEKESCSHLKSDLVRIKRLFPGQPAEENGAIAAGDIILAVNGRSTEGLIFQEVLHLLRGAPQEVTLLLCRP

RADIL, Q96JH8 = target: T2, RADIL, Q96JH8
T2 sequence (Q96JH8 971-1071, limits assumed, looked up): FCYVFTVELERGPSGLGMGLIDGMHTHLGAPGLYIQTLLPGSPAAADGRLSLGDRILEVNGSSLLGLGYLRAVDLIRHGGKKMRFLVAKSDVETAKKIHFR

LAP2, Q96RT1 = target: LAP2, Q96RT1
LAP2, Q96RT1, sequence (Q96RT1 other isoform, or with tags, fused parts or gaps): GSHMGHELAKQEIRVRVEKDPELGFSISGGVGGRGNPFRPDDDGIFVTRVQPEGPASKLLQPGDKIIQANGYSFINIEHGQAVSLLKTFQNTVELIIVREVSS

GORASP1, Q9BQQ3 = target: GORASP1, Q9BQQ3
GORASP1, Q9BQQ3, sequence (Q9BQQ3 1-208): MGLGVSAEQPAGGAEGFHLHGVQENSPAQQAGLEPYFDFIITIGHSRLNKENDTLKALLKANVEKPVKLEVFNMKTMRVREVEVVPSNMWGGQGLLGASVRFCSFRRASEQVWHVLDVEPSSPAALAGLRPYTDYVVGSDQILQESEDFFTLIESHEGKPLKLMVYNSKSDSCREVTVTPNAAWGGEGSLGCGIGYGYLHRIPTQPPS

MAGI1_2, Q96QZ7 = target: MAGI1_2, Q96QZ7
MAGI1_2, Q96QZ7, sequence (Q96QZ7 456-580): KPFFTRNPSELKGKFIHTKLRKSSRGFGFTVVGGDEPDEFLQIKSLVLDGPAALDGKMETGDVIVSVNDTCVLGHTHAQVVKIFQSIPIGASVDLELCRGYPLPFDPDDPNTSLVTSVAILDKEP

NHERF3_4, Q5T2W1 = target: T3, NHERF3_4, Q5T2W1
T3 sequence (Q5T2W1 373-468, limits assumed, looked up): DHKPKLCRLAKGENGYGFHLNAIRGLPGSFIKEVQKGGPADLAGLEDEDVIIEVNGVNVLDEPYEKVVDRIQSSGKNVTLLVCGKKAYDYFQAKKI

GRIP1_3, Q9Y3R0 = target: T4, GRIP1_3, Q9Y3R0
T4 sequence (Q9Y3R0 247-346, limits assumed, looked up): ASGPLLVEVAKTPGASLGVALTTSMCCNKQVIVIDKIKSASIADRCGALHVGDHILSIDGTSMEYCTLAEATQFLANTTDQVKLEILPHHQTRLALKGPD

LNX1_3, Q8TBB1 = target: LNX1_3, Q8TBB1
LNX1_3, Q8TBB1, sequence (Q8TBB1 500-596): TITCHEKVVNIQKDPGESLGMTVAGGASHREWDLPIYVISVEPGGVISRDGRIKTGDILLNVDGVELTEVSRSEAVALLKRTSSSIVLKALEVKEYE

LIN7B, Q9HAP6 = target: T5, LIN7B, Q9HAP6
T5 sequence (Q9HAP6 88-185, limits assumed, looked up): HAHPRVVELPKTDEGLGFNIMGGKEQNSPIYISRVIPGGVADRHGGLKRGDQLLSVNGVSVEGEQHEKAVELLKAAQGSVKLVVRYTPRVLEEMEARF

MAGI2_4, Q86UL8 = target: MAGI2_4, Q86UL8
MAGI2_4, Q86UL8, sequence (Q86UL8 772-865): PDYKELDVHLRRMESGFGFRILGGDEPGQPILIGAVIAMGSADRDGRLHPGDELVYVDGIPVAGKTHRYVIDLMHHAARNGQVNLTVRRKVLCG

PCLO, Q9Y6V0 = target: T6, PCLO, Q9Y6V0
T6 sequence (Q9Y6V0 4491-4600, limits assumed, looked up): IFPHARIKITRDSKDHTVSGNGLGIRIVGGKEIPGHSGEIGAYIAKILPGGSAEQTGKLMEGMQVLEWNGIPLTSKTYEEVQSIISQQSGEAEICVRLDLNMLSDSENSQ

FRMPD2_1, Q68DX3 = target: FRMPD2_1, Q68DX3
FRMPD2_1, Q68DX3, sequence (Q68DX3 770-861): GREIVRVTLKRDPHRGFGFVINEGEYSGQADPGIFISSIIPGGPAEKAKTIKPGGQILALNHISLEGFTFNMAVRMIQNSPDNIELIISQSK

MPP7, Q5T2T1 = target: T7, MPP7, Q5T2T1
T7 sequence (Q5T2T1 134-230, limits assumed, looked up): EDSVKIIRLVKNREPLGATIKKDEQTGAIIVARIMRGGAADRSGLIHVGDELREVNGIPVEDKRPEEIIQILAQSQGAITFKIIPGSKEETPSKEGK

GIPC2, Q8TF65 = target: GIPC2, Q8TF65
GIPC2, Q8TF65, sequence (Q8TF65 112-203): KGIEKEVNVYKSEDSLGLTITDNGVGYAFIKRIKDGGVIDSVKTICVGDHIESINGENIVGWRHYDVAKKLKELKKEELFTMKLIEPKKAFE

MPP6, Q9NZW5 = target: T8, MPP6, Q9NZW5
T8 sequence (Q9NZW5 125-219, limits assumed, looked up): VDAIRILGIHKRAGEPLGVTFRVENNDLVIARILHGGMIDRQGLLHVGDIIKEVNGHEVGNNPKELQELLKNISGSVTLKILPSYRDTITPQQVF

PDZD7_3, Q9H5P4 = target: T9, PDZD7_3, Q9H5P4
T9 sequence (Q9H5P4 857-944, limits assumed, looked up): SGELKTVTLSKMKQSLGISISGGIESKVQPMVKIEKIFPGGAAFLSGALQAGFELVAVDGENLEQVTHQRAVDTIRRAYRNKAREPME

PDZD2_2, O15018 = target: T10, PDZD2_2, O15018
T10 sequence (O15018 329-429, limits assumed, looked up): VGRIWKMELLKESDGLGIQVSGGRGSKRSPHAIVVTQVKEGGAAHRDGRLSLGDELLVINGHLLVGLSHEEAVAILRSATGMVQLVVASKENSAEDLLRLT

APBA1_2, Q02410 = target: T11, APBA1_2, Q02410
T11 sequence (Q02410 742-832, limits assumed, looked up): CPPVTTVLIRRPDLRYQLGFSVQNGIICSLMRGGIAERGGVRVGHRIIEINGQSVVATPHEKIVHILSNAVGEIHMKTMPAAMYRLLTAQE

Inadl_2, Q8NI35 = target: Inadl_2, Q8NI35
Inadl_2, Q8NI35, sequence (Q8NI35 238-335): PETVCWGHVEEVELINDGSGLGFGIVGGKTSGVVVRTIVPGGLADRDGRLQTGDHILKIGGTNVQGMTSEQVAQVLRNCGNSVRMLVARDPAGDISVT

CASK, O14936 = target: CASK, O14936
CASK, O14936, sequence (O14936 487-570): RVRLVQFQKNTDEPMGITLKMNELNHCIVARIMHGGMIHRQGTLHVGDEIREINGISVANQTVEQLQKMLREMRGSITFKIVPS

LNX1_1, Q8TBB1, sequence (Q8TBB1 261-371): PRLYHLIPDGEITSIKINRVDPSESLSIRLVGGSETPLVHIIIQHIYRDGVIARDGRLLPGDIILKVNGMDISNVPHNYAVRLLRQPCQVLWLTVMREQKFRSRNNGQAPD
FRMPD2_2, Q68DX3, sequence (Q68DX3 944-1038): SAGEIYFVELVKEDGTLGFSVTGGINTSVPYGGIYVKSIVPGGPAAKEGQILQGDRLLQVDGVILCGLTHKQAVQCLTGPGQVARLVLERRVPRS

With SKPTRRETEV [HPV35-E6, P27228] the pKd (FRMPD2_2, Q68DX3) was “below the threshold”, the pKd (LNX1_1, Q8TBB1) was “below the threshold” and the pKd (DLG1_1, Q12959) was 5.02. For the same binder, the pKd (DLG4_3, P78352) was 5.2, the pKd (GRIP1_4, Q9Y3R0) was “below the threshold” and the pKd (GRIP2_6, Q9C0E4) was “below the threshold”. The pKd (GRIP2_7, Q9C0E4) was “below the threshold”, the pKd (FRMPD2_3, Q68DX3) was “below the threshold” and the pKd (RADIL, Q96JH8) was “below the threshold”. For the same binder, the pKd (LAP2, Q96RT1) was 3.69, the pKd (GORASP1, Q9BQQ3) was “below the threshold” and the pKd (MAGI1_2, Q96QZ7) was 5.13. For the same binder, the pKd (NHERF3_4, Q5T2W1) was “below the threshold”, the pKd (GRIP1_3, Q9Y3R0) was “below the threshold” and the pKd (LNX1_3, Q8TBB1) was “below the threshold”. For the same binder, the pKd (LIN7B, Q9HAP6) was 3.49, the pKd (MAGI2_4, Q86UL8) was 4.34 and the pKd (PCLO, Q9Y6V0) was “below the threshold”. The pKd (FRMPD2_1, Q68DX3) was 3.49, the pKd (MPP7, Q5T2T1) was “below the threshold” and the pKd (GIPC2, Q8TF65) was “below the threshold”. For the same binder, the pKd (MPP6, Q9NZW5) was “below the threshold”, the pKd (PDZD7_3, Q9H5P4) was 4.3 and the pKd (PDZD2_2, O15018) was 3.78. The pKd (APBA1_2, Q02410) was “below the threshold”, the pKd (Inadl_2, Q8NI35) was “below the threshold” and the pKd (CASK, O14936) was “below the threshold”.

In the case of QRQARSETLV [HPV59-E6, Q81964], the pKd (FRMPD2_2, Q68DX3) is reported as 3.95, the pKd (LNX1_1, Q8TBB1) is reported as “below the threshold” and the pKd (DLG1_1, Q12959) is reported as 5.05. For the same binder, the pKd (DLG4_3, P78352) was 4.21, the pKd (GRIP1_4, Q9Y3R0) was “below the threshold” and the pKd (GRIP2_6, Q9C0E4) was “below the threshold”. The pKd (GRIP2_7, Q9C0E4) was “below the threshold”, the pKd (FRMPD2_3, Q68DX3) was “below the threshold” and the pKd (RADIL, Q96JH8) was 4.47. The pKd (LAP2, Q96RT1) was “below the threshold”, the pKd (GORASP1, Q9BQQ3) was “below the threshold” and the pKd (MAGI1_2, Q96QZ7) was 6.04. For the same binder, the pKd (NHERF3_4, Q5T2W1) was “below the threshold”, the pKd (GRIP1_3, Q9Y3R0) was “below the threshold” and the pKd (LNX1_3, Q8TBB1) was “below the threshold”. The pKd (LIN7B, Q9HAP6) was “below the threshold”, the pKd (MAGI2_4, Q86UL8) was 5.71 and the pKd (PCLO, Q9Y6V0) was “below the threshold”. For the same binder, the pKd (FRMPD2_1, Q68DX3) was “below the threshold”, the pKd (MPP7, Q5T2T1) was “below the threshold” and the pKd (GIPC2, Q8TF65) was “below the threshold”. For the same binder, the pKd (MPP6, Q9NZW5) was “below the threshold”, the pKd (PDZD7_3, Q9H5P4) was 4.72 and the pKd (PDZD2_2, O15018) was 4.37. For the same binder, the pKd (APBA1_2, Q02410) was “below the threshold”, the pKd (Inadl_2, Q8NI35) was “below the threshold” and the pKd (CASK, O14936) was “below the threshold”.
